To fix the notation:
B1: Tryptophan synthase alpha chain, P00929 (parent)
chain: MERYENLFAQLNDRREGAFVPFVTLGDPGIEQSLKIIDTLIDAGADALELGVPFSDPLADGPTIQNANLRAFAAGVTPAQCFEMLALIREKHPTIPIGLLMYANLVFNNGIDAFYARCEQVGVDSVLVADVPVEESAPFRQAALRHNIAPIFICPPNADDDLLRQVASYGRGYTYLLSRSGVTGAENRGALPLHHLIEKLKEYHAAPALQGFGISSPEQVSAAVRAGAAGAISGSAIVKIIEKNLASPKQMLAELRSFVSAMKAASRA

In the series the parent is B1. The following applies: Salmonella typhimurium (strain LT2 / SGSC1412 / ATCC 700720); pH 7.8; 25 °C; Urea; CD; Potassium phosphate 10 mM; transition: 3; structure 2WSY; whole UniProt chain shown.

“And” between values parts separate entries of the source, which are not always exact repeats. Equal entries are not always repeated.

Consider Y175Q, for which the denaturant m value is 2.9 kcal/mol/M and 2.7 kcal/mol/M; the “denaturant midpoint (higher = more stable)” value (“denaturant midpoint” below) is 2.05 M and 2.91 M; the unfolding free energy is 6 kcal/mol and 7.9 kcal/mol.

In the case of L209V, the “ddG of mutation (higher = less stable)” value was 3.4 kcal/mol and 2 kcal/mol; the denaturant m value was 1.7 kcal/mol/M and 1.1 kcal/mol/M; the “denaturant midpoint” value was 2.3 M and 3.44 M; the unfolding free energy was 4 kcal/mol and 3.8 kcal/mol.

Consider A18V I232V, for which the denaturant m value is 2.1 kcal/mol/M and 1.8 kcal/mol/M; the “denaturant midpoint” value is 2.12 M and 3.73 M; the unfolding free energy was 4.4 kcal/mol and 6.8 kcal/mol.

Consider Y175Q L209V, for which the denaturant m value is 1.6 kcal/mol/M and 2.2 kcal/mol/M; the “denaturant midpoint” value is 2.23 M and 4.32 M; the unfolding free energy was 3.6 kcal/mol and 9.7 kcal/mol.

As for A18G I232V, the denaturant m value is 0.9 kcal/mol/M and 1.6 kcal/mol/M; the “denaturant midpoint” value was 2.08 M and 3.46 M; the unfolding free energy is 1.9 kcal/mol and 5.6 kcal/mol.

On to I232V, for which the “ddG of mutation (higher = less stable)” value was 3.9 kcal/mol and 1.5 kcal/mol; the denaturant m value is 1.5 kcal/mol/M and 1.3 kcal/mol/M; the “denaturant midpoint” value was 2.31 M and 3.28 M; the unfolding free energy was 3.5 kcal/mol and 4.3 kcal/mol.

A18V: the denaturant m value amounted to 1.5 kcal/mol/M; the “denaturant midpoint” value is 3.77 M and 2.24 M; the unfolding free energy was 5.8 kcal/mol and 3.3 kcal/mol.

Consider A18G, for which the “ddG of mutation (higher = less stable)” value amounted to 4.1 kcal/mol, the denaturant m value came out at 1.7 kcal/mol/M, the “denaturant midpoint” value stood at 1.88 M and the unfolding free energy was found to be 3.3 kcal/mol.
